Patent US20210388087A1 (Chugai, published 2021)
Positions count from the first letter of the chain named. Values belong to the binder of their own block, whether it stands above or below them.

Assays:
Human CD137 ECD = molecular target: T1, Human CD137 ECD (human); test: SPR Biacore T200, 37 C, Ab captured on anti-human Fc, antigen as analyte;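 also: recombinant human CD137 flowed over antibodies held by amine-coupled anti-human Fc on a CM4 chip, run in ACES pH 7.4 buffer with 150 mM NaCl and 0.05% Tween 20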
T1 construct: also called human CD137 extracellular domain; recombinant human CD137
Procedure: (§1) Binding affinity of Dual-Fab antibodies (Dual-Ig) to human CD3 were assessed at 25 degrees C. using Biacore T200 instrument (GE Healthcare). Anti-human Fc (GE Healthcare) was immobilized onto all flow cells of a CM4 sensor chip using amine coupling kit (GE Healthcare). Antibodies were captured onto the anti-Fc sensor surfaces, then recombinant human CD3 or CD137 was injected over the flow cell. All antibodies and analytes were prepared in ACES pH 7.4 containing 20 mM ACES, 150 mM NaCl, 0.05% Tween 20, 0.005% NaN3. Sensor surface was regenerated each cycle with 3M MgCl2. […] CD137 binding affinity assay was conducted in same condition except assay temperature was set at 37 degrees C.

Human CD3eg linker = molecular target: T2, Human CD3eg linker (human); test: SPR Biacore T200, 25 C, Ab captured on anti-human Fc, antigen as analyte;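 also: Anti-Fc amine-coupled to a CM4 chip, recombinant human CD3 flowed over in 20 mM ACES buffer pH 7.4 with 150 mM NaCl and 0.05% Tween 20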
T2 construct: Single chain: CD3 epsilon and gamma subunits joined by a 29-mer linker, Flag-tag at the C-terminus; also called recombinant human CD3
T2 chain: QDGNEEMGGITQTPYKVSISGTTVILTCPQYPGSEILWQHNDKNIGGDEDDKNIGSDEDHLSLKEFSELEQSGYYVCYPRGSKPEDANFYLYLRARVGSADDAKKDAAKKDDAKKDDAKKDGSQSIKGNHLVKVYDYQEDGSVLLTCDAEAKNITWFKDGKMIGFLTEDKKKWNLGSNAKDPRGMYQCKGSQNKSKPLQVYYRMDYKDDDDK
Procedure: as §1

T1 sequence (chain, as listed by the source limits assumed): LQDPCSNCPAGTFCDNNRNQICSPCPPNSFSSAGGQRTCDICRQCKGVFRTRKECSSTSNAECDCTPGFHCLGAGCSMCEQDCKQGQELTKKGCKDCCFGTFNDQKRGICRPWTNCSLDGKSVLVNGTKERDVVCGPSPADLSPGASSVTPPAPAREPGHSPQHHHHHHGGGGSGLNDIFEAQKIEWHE

B1: H1652L0943 (antibody, V domains shown)
VH: QVQLVESGGGLVQPGRSLRLSCAASGFVFSNVWFHWVRQAPGKGLEWVAQIKDYYNAYADYYAPSVEGRFTISRDDSKNSIYLQMNSLKTEDTAVYYCHYVHYASASTLLPAEGVDAWGQGTTVTVSS
VL: DIVMTQSPLSLPVTPGEPASISCQPSEEVVHMNRNTYLHWYQQKPGQAPRLLIYKVSNLFPGVPDRFSGSGSGTDFTLKISRVEAEDVGVYYCAQGTHHPFTFGQGTKLEIK
notes: Dual-Ig, IgG; also called dBBDu183H1652/dBBDu072L0943
- Kd (Human CD137 ECD): 36.4 nM
- koff (Human CD137 ECD): 0.00047 s⁻¹
- kon (Human CD137 ECD): 12900 M⁻¹ s⁻¹

B2: H0868L0581 (antibody, V domains shown)
VH: B1 VH with V28K, F34M, Y54K, D60A, E67K, E113F
VL: B1 VL with E27Q, L59R, H98S
notes: Dual-Ig, IgG; also called H868L581; dBBDu183H0868/dBBDu072L0581
- Kd (Human CD3eg linker): 157 nM
- koff (Human CD3eg linker): 0.0194 s⁻¹
- kon (Human CD3eg linker): 123000 M⁻¹ s⁻¹
- Kd (Human CD137 ECD): 111 nM
- koff (Human CD137 ECD): 0.00136 s⁻¹
- kon (Human CD137 ECD): 12200 M⁻¹ s⁻¹

B5: H1550L0918 (antibody, V domains shown)
VH: B1 VH with V28K, F34M, Y54K, D60A, E67K, V101I, E113F
VL: B1 VL with E27Q, R34N, N35V, T36V, L59R, H98S
notes: Dual-Ig, IgG; also called H1550L918; dBBDu183H1550/dBBDu072L0918
- Kd (Human CD3eg linker): 43.8 nM
- koff (Human CD3eg linker): 0.00316 s⁻¹
- kon (Human CD3eg linker): 72000 M⁻¹ s⁻¹
- Kd (Human CD137 ECD): 530 nM
- koff (Human CD137 ECD): 0.00579 s⁻¹
- kon (Human CD137 ECD): 10900 M⁻¹ s⁻¹

B6: H1571L0581 (antibody, V domains shown)
VH: B1 VH with V28K, Y54K, D60T, E67K, E113F
VL: B1 VL with E27Q, L59R, H98S
notes: Dual-Ig, IgG; also called dBBDu183H1571/dBBDu072L0581
- Kd (Human CD3eg linker): 110 nM
- koff (Human CD3eg linker): 0.0156 s⁻¹
- kon (Human CD3eg linker): 142000 M⁻¹ s⁻¹
- Kd (Human CD137 ECD): 86.8 nM
- koff (Human CD137 ECD): 0.00105 s⁻¹
- kon (Human CD137 ECD): 12100 M⁻¹ s⁻¹

B8: H1643L0581 (antibody, V domains shown)
VH: B1 VH with V28K, D60A, E67K
VL: B1 VL with E27Q, L59R, H98S
notes: Dual-Ig, IgG; also called H1643L581; dBBDu183H1643/dBBDu072L0581
- Kd (Human CD3eg linker): 265 nM
- koff (Human CD3eg linker): 0.0251 s⁻¹
- kon (Human CD3eg linker): 94600 M⁻¹ s⁻¹
- Kd (Human CD137 ECD): 49.4 nM
- koff (Human CD137 ECD): 0.000606 s⁻¹
- kon (Human CD137 ECD): 12300 M⁻¹ s⁻¹

B9: H1649L0581 (antibody, V domains shown)
VH: B1 VH with Y54K, E67K, G68E
VL: B1 VL with E27Q, L59R, H98S
notes: Dual-Ig, IgG; also called dBBDu183H1649/dBBDu072L0581
- Kd (Human CD3eg linker): 449 nM
- koff (Human CD3eg linker): 0.0336 s⁻¹
- kon (Human CD3eg linker): 75000 M⁻¹ s⁻¹
- Kd (Human CD137 ECD): 42.8 nM
- koff (Human CD137 ECD): 0.000553 s⁻¹
- kon (Human CD137 ECD): 12900 M⁻¹ s⁻¹

Other lines, results leading:

- Kd (Human CD137 ECD): 64.8 nM
- koff (Human CD137 ECD): 0.000647 s⁻¹
- kon (Human CD137 ECD): 9980 M⁻¹ s⁻¹
B3: H1647L0581 (antibody, V domains shown)
VH: B1 VH with V28K, V32T, A57D, D60A, E67K
VL: B1 VL with E27Q, L59R, H98S
notes: Dual-Ig, IgG; also called dBBDu183H1647/dBBDu072L0581

- Kd (Human CD3eg linker): 50.7 nM
- koff (Human CD3eg linker): 0.00253 s⁻¹
- kon (Human CD3eg linker): 50000 M⁻¹ s⁻¹
- Kd (Human CD137 ECD): 61.8 nM
- koff (Human CD137 ECD): 0.000801 s⁻¹
- kon (Human CD137 ECD): 13000 M⁻¹ s⁻¹
B4: H1610L0939 (antibody, V domains shown)
VH: B1 VH with F34M, Y54K, Y55W, D60A, E67K, V101I, V115I
VL: B1 VL with E27Q, L59V
notes: Dual-Ig, IgG; also called H1610L939; dBBDu183H1610/dBBDu072L0939

- Kd (Human CD3eg linker): 20.9 nM
- koff (Human CD3eg linker): 0.00142 s⁻¹
- kon (Human CD3eg linker): 68000 M⁻¹ s⁻¹
- Kd (Human CD137 ECD): 103 nM
- koff (Human CD137 ECD): 0.0011 s⁻¹
- kon (Human CD137 ECD): 10700 M⁻¹ s⁻¹
B7: H1610L0581 (antibody, V domains shown)
VH: B1 VH with F34M, Y54K, Y55W, D60A, E67K, V101I, V115I
VL: B1 VL with E27Q, L59R, H98S
notes: Dual-Ig, IgG; also called H1610L581; dBBDu183H1610/dBBDu072L0581
